Laboratory results from US20060177432A1 (Novartis, published 2006).

Assays:
human α-thrombin = human α-thrombin (human, UniProt P00734 328-622); experiment: chromogenic substrate hydrolysis at varied substrate and PEBP-H6 concentrations, fitted to the equation for a competitive inhibitor
Procedure: (§1) Six different serine proteases were diluted in enzyme buffer (67 mM Tris, pH 8.0, 133 mM NaCl, 0.13% PEG-6000) and used in protease activity assays with the following final amounts: thrombin, trypsin and chymotrypsin, 0.005 pmol; t-PA and neuropsin, 0.5 pmol; and pancreatic elastase, 4 pmol. Human α-thrombin was prepared and according to Stone et al. (Stone, S. R. and Hofsteenge, J. (1986) Biochemistry 25, 46224628); all other proteases are commercially available (e.g., Sigma, Fluka). […] The pre-incubation was carried out in a 96-well plate for 30 min at 37° C. After addition of 10 μl chromogenic protease substrate (H-D-Ile-Pro-Arg-para-nitroanilide, Chromogenix, 1.25 mg/ml in H₂O for all proteases other than chymotrypsin; or N-Succinyl-Ala-Ala-Pro-Phe-para-nitroanilide, Sigma, 2.3 mg/ml in H₂O for chymotrypsin), any remaining amidolytic activity was determined by measuring the rate of hydrolysis of the chromogenic substrate at 405 nm over 30 min using a THERMOmax microplate reader (Molecular Devices). […]
(§2) To determine the inhibition constants, the rates for the hydrolysis of the chromogenic substrates were measured as described above at fixed enzyme concentrations and substrate concentrations ranging from 3.5 μM to 216 μM and PEBP-H6 concentrations between 0 and 2.9 μM. […]

chymotrypsin = experiment: as above
Procedure: as §1, §2

Ki (human α-thrombin): 380 nM
Ki (chymotrypsin): 1800 nM
B1: PEBP-H6 (mouse PEBP with a stretch of six histidine residues fused to the carboxy-terminus) (other)
chain: AADISQWAGPLCLQEVDEPPQHALRVDYAGVTVDELGKVLTPTQVMNRPSSISWDGLDPGKLYTLVLTDPDAPSRKDPKFREWHHFLVVNMKGNDISSGTVLSDYVGSGPPSGTGLHRYVWLVYEQEQPLSCDEPILSNKSGDNRGKFKVETFRKKYNLGAPVAGTCYQAEWDDYVPKLYEQLSGKHHHHHH
notes: Expressed in Rat-1 cells and purified on Ni-NTA
